Experimental data taken from patent publication US20260242419A1, “A CYCLIC PEPTIDE FOR TRAPPING INTERLEUKIN-1 BETA” (Merck Sharp & Dohme LLC, priority 2023, published 2026).
Non-standard residues stand in square brackets, D forms with d. No end group written: not given here. Phe(4-(5-CO2H-2-pyrimidyl)) = N[C@@H](Cc1ccc(-c2ncc(C(=O)O)cn2)cc1)C(=O)O; Phe(4-(4-Ac-piperazinyl)) = CC(=O)N1CCN(c2ccc(C[C@H](N)C(=O)O)cc2)CC1; dPro(4R-(4-pyridylmethyl)) = O=C(O)[C@H]1C[C@@H](Cc2ccncc2)CN1; Trp(βS-Me,4-F) = C[C@@H](c1c[nH]c2cccc(F)c12)[C@H](N)C(=O)O; Bip(4'-COOH) = N[C@@H](Cc1ccc(-c2ccc(C(=O)O)cc2)cc1)C(=O)O; Ala(1-bicyclo(1.1.1)pentyl) = N[C@@H](CC12CC(C1)C2)C(=O)O; dPro(4R-Bzl(4-F)) = O=C(O)[C@H]1C[C@@H](Cc2ccc(F)cc2)CN1; Ala(pyrimidin-5-yl) = N[C@@H](Cc1cncnc1)C(=O)O; Phe(4-COOH) = N[C@@H](Cc1ccc(C(=O)O)cc1)C(=O)O; Pro(cis-4-F) = O=C(O)[C@@H]1C[C@H](F)CN1; Ala(4-THP) = N[C@@H](CC1CCOCC1)C(=O)O; cisHyp = O=C(O)[C@@H]1C[C@H](O)CN1; 4Pal = N[C@@H](Cc1ccncc1)C(=O)O; aThr = C[C@H](O)[C@H](N)C(=O)O; αMeD = C[C@](N)(CC(=O)O)C(=O)O; d(αMeS) = C[C@@](N)(CO)C(=O)O; Dab = NCC[C@H](N)C(=O)O; Aib = CC(C)(N)C(=O)O; Sar = CNCC(=O)O

B1: SEQ ID NO: 208 (peptide)
peptide: cyclo([Bip(4'-COOH)][4Pal][Phe(4-COOH)]G[Pro(cis-4-F)][Trp(βS-Me,4-F)][Aib]SW[αMeD][Ala(4-THP)]Q[Dab][Sar][dPro(4R-(4-pyridylmethyl))])
modifications: ring closure inferred; not fully specified (bridges); printed as Bip4CO2H-4Pal-Phe4COOH-G-Proc4F-SbMeW4F-Aib-S-W-aMeD-AlaTHP4-Q-Dab-Sar-dProc4CH24Pal, cyclic (macrolactam)
B2: SEQ ID NO: 198 (peptide)
peptide: [Phe(4-(5-CO2H-2-pyrimidyl))][Ala(1-bicyclo(1.1.1)pentyl)][Phe(4-COOH)]G[Pro(cis-4-F)][SbMcW4F][Aib]SW[Aib][Ala(pyrimidin-5-yl)]Q[Dab]G[dPro(4R-(4-pyridylmethyl))]
modifications: lactam (positions not given here); also: macrolactam ring, closure sites not given here
B3: SEQ ID NO: 191 (peptide)
peptide: [Bip(4'-COOH)][Ala(1-bicyclo(1.1.1)pentyl)][Phe(4-COOH)]G[cisHyp][Trp(βS-Me,4-F)][Aib]SW[αMeD][Ala(4-THP)]Q[Dab]G[dPro(4R-(4-pyridylmethyl))]
modifications: lactam (positions not given here); also: macrolactam ring, closure sites not given here
B4: SEQ ID NO: 204 (peptide)
peptide: cyclo([Bip(4'-COOH)][Ala(1-bicyclo(1.1.1)pentyl)][Phe(4-COOH)]G[Pro(cis-4-F)][Trp(βS-Me,4-F)][Aib]SW[d(αMeS)][Ala(4-THP)]Q[Dab]G[dPro(4R-(4-pyridylmethyl))])
modifications: ring closure inferred; not fully specified (bridges); printed as Bip4CO2H-AlaPent-Phe4COOH-G-Proc4F-SbMeW4F-Aib-S-W-daMeS-AlaTHP4-Q-Dab-G-dProc4CH24Pal, cyclic (macrolactam)
B5: SEQ ID NO: 205 (peptide)
peptide: cyclo([Bip(4'-COOH)][4Pal][Phe(4-COOH)]G[Pro(cis-4-F)][Trp(βS-Me,4-F)][Aib]SW[Aib][Ala(pyrimidin-5-yl)]Q[Dab][Sar][dPro(4R-(4-pyridylmethyl))])
modifications: ring closure inferred; not fully specified (bridges); printed as Bip4CO2H-4Pal-Phe4COOH-G-Proc4F-SbMeW4F-Aib-S-W-Aib-PyrimAla-Q-Dab-Sar-dProc4CH24Pal, cyclic (macrolactam)
B6: SEQ ID NO: 197 (peptide)
peptide: [Phe(4-(5-CO2H-2-pyrimidyl))][4Pal][Phe(4-COOH)]G[cisHyp][Trp(βS-Me,4-F)][Aib]SW[Aib][Ala(pyrimidin-5-yl)]Q[Dab]G[dPro(4R-(4-pyridylmethyl))]
modifications: lactam (positions not given here); also: macrolactam ring, closure sites not given here
B7: SEQ ID NO: 192 (peptide)
peptide: [Bip(4'-COOH)][Ala(1-bicyclo(1.1.1)pentyl)][Phe(4-COOH)]G[cisHyp][Trp(βS-Me,4-F)][Aib]SW[d(αMeS)][Ala(4-THP)]Q[Dab]G[dPro(4R-(4-pyridylmethyl))]
modifications: lactam (positions not given here); also: macrolactam ring, closure sites not given here
B8: SEQ ID NO: 206 (peptide)
peptide: cyclo([Bip(4'-COOH)][4Pal][Phe(4-COOH)]G[Pro(cis-4-F)][Trp(βS-Me,4-F)][Aib]SW[d(αMeS)][Ala(pyrimidin-5-yl)]Q[Dab][Sar][dPro(4R-(4-pyridylmethyl))])
modifications: ring closure inferred; not fully specified (bridges); printed as Bip4CO2H-4Pal-Phe4COOH-G-Proc4F-SbMeW4F-Aib-S-W-daMeS-PyrimAla-Q-Dab-Sar-dProc4CH24Pal, cyclic (macrolactam)
B9: SEQ ID NO: 190 (peptide)
peptide: [Bip(4'-COOH)][Ala(1-bicyclo(1.1.1)pentyl)][Phe(4-COOH)]G[cisHyp][Trp(βS-Me,4-F)][Aib]SW[d(αMeS)][Ala(pyrimidin-5-yl)]Q[Dab]G[dPro(4R-(4-pyridylmethyl))]
modifications: lactam (positions not given here); also: macrolactam ring, closure sites not given here
B10: SEQ ID NO: 199 (peptide)
peptide: cyclo([Bip(4'-COOH)][4Pal][Phe(4-COOH)]G[cisHyp][Trp(βS-Me,4-F)][Aib]SW[αMeD][Ala(4-THP)]QSG[dPro(4R-(4-pyridylmethyl))])
modifications: ring closure inferred; not fully specified (bridges); printed as Bip4CO2H-4Pal-Phe4COOH-G-Proc4OH-SbMeW4F-Aib-S-W-aMeD-AlaTHP4-Q-S-G-dProc4CH24Pal, cyclic (macrolactam)
B11: SEQ ID NO: 203 (peptide)
peptide: cyclo([Bip(4'-COOH)][Ala(1-bicyclo(1.1.1)pentyl)][Phe(4-COOH)]G[Pro(cis-4-F)][Trp(βS-Me,4-F)][Aib]SW[αMeD]VQ[Dab]G[dPro(4R-(4-pyridylmethyl))])
modifications: ring closure inferred; not fully specified (bridges); printed as Bip4CO2H-AlaPent-Phe4COOH-G-Proc4F-SbMeW4F-Aib-S-W-aMeD-V-Q-Dab-G-dProc4CH24Pal, cyclic (macrolactam)
B12: SEQ ID NO: 196 (peptide)
peptide: [Phe(4-(4-Ac-piperazinyl))][4Pal][Phe(4-COOH)]G[cisHyp][Trp(βS-Me,4-F)][Aib]SW[Aib][Ala(pyrimidin-5-yl)]Q[Dab]G[dPro(4R-Bzl(4-F))]
modifications: lactam (positions not given here); also: macrolactam ring, closure sites not given here
B13: SEQ ID NO: 193 (peptide)
peptide: [Bip(4'-COOH)][Ala(1-bicyclo(1.1.1)pentyl)][Phe(4-COOH)]G[Pro(cis-4-F)][Trp(βS-Me,4-F)][Aib]SW[αMeD][Ala(4-THP)]Q[Dab]G[dPro(4R-(4-pyridylmethyl))]
modifications: lactam (positions not given here); also: macrolactam ring, closure sites not given here
B14: SEQ ID NO: 201 (peptide)
peptide: cyclo([Bip(4'-COOH)][4Pal][Phe(4-COOH)]G[cisHyp][Trp(βS-Me,4-F)][Aib]SW[αMeD][Ala(4-THP)]Q[Dab]G[dPro(4R-(4-pyridylmethyl))])
modifications: ring closure inferred; not fully specified (bridges); printed as Bip4CO2H-4Pal-Phe4COOH-G-Proc4OH-SbMeW4F-Aib-S-W-aMeD-AlaTHP4-Q-Dab-G-dProc4CH24Pal, cyclic (macrolactam)
B15: SEQ ID NO: 200 (peptide)
peptide: cyclo([Bip(4'-COOH)][4Pal][Phe(4-COOH)]G[Pro(cis-4-F)][Trp(βS-Me,4-F)][Aib]SW[αMeD][Ala(4-THP)]Q[Dab]G[dPro(4R-(4-pyridylmethyl))])
modifications: ring closure inferred; not fully specified (bridges); printed as Bip4CO2H-4Pal-Phe4COOH-G-Proc4F-SbMeW4F-Aib-S-W-aMeD-AlaTHP4-Q-Dab-G-dProc4CH24Pal, cyclic (macrolactam)
B16: SEQ ID NO: 207 (peptide)
peptide: cyclo([Bip(4'-COOH)][4Pal][Phe(4-COOH)]G[cisHyp][Trp(βS-Me,4-F)][Aib]SW[d(αMeS)][Ala(4-THP)]Q[Dab][Sar][dPro(4R-(4-pyridylmethyl))])
modifications: ring closure inferred; not fully specified (bridges); printed as Bip4CO2H-4Pal-Phe4COOH-G-Proc4OH-SbMeW4F-Aib-S-W-daMeS-AlaTHP4-Q-Dab-Sar-dProc4CH24Pal, cyclic (macrolactam)
B17: SEQ ID NO: 202 (peptide)
peptide: cyclo([Bip(4'-COOH)][Ala(1-bicyclo(1.1.1)pentyl)][Phe(4-COOH)]G[Pro(cis-4-F)][Trp(βS-Me,4-F)][Aib]SW[αMeD][aThr]Q[Dab]G[dPro(4R-(4-pyridylmethyl))])
modifications: ring closure inferred; not fully specified (bridges); printed as Bip4CO2H-AlaPent-Phe4COOH-G-Proc4F-SbMeW4F-Aib-S-W-aMeD-alT-Q-Dab-G-dProc4CH24Pal, cyclic (macrolactam)
B18: SEQ ID NO: 195 (peptide)
peptide: [Bip(4'-COOH)][4Pal][Phe(4-COOH)]G[cisHyp][Trp(βS-Me,4-F)][Aib]SW[d(αMeS)][Ala(pyrimidin-5-yl)]Q[Dab]G[dPro(4R-(4-pyridylmethyl))]
modifications: lactam (positions not given here); also: macrolactam ring, closure sites not given here
B19: SEQ ID NO: 194 (peptide)
peptide: [Bip(4'-COOH)][4Pal][Phe(4-COOH)]G[cisHyp][Trp(βS-Me,4-F)][Aib]SW[Aib][Ala(pyrimidin-5-yl)]Q[Dab]G[dPro(4R-(4-pyridylmethyl))]
modifications: lactam (positions not given here); also: macrolactam ring, closure sites not given here

The binders below were run against Recombinant human IL-1β (BioLegend 579404) (human, UniProt P01584 117-269) (assay: cell-based or functional assay).
B1 was tested, and the “MRC5 IC50” value was 0.015 nM.
For B2, the “MRC5 IC50” value was 0.024 nM.
With B3 the “MRC5 IC50” value was 0.021 nM.
With B4 the “MRC5 IC50” value was 0.017 nM.
For B5, the “MRC5 IC50” value was 0.028 nM.
With B6 the “MRC5 IC50” value was 0.036 nM.
With B7 the “MRC5 IC50” value was 0.021 nM.
With B8 the “MRC5 IC50” value was 0.022 nM.
In the case of B9, the “MRC5 IC50” value is reported as 0.019 nM.
B10 was tested, and the “MRC5 IC50” value was 0.032 nM.
With B11 the “MRC5 IC50” value was 0.016 nM.
In the case of B12, the “MRC5 IC50” value is reported as 0.038 nM.
In the case of B13, the “MRC5 IC50” value is reported as 0.011 nM.
For B14, the “MRC5 IC50” value was 0.019 nM.
With B15 the “MRC5 IC50” value was 0.014 nM.
B16 was tested, and the “MRC5 IC50” value was 0.044 nM.
In the case of B17, the “MRC5 IC50” value is reported as 0.013 nM.
In the case of B18, the “MRC5 IC50” value is reported as 0.013 nM.
With B19 the “MRC5 IC50” value was 0.014 nM.
